Laboratory results reported in patent US20200270588A1, “GLUCOSYL TRANSFERASE POLYPEPTIDES AND METHODS OF USE” (Syngenta Participations AG, priority 2017, published 2020).

B1: F213W: additional mutation in SEQ ID No: 17 (protein)
chain: MASSRTGAGAGGRVVVFPFPFQGHFNPVMRLARALHARGLAITVFHSGALDPADYPADYRFVPVTVEADPKLLASEDIAAIVTTLNASCDAPFRARLSALLAAEGRDSVRCVFTDVVWNAVLTASSDLGVPALGMMTASAASLRDYMAYRTLIDKGYLPVKEERKEDPVPELPPYLVKDLLRVDTSDLEEFAELLARTVTAARRASGLIFNTWPLIETDTLAEIHKALSVPVFAVAPLNKLVPTATASLHGVVQADRGCLQWLDTQQPGSVLYVSFGSFAAMDPHEFVELAWGLADSKRPFVWVVRPNLIRGFESGALPDGVEDEVRGRGIVVKWAPQEEVLAHPAVGGFLTHNGWNSTVEAISEGVPMVCCPRHGDQFGNMRYVCDVWKVGTELVGEQLERGQVKAAIDRLFGTKEGEEIKERMKEFKIAAAKGIGIGVDVDETASPRTDLTDLVDLIKSF
modifications: Mutated Zea mays Bx9 protein sequence
B2: P284F: additional mutation in SEQ ID No: 17 (protein)
chain: MASSRTGAGAGGRVVVFPFPFQGHFNPVMRLARALHARGLAITVFHSGALDPADYPADYRFVPVTVEADPKLLASEDIAAIVTTLNASCDAPFRARLSALLAAEGRDSVRCVFTDVVWNAVLTASSDLGVPALGMMTASAASLRDYMAYRTLIDKGYLPVKEERKEDPVPELPPYLVKDLLRVDTSDLEEFAELLARTVTAARRASGLIFNTFPLIETDTLAEIHKALSVPVFAVAPLNKLVPTATASLHGVVQADRGCLQWLDTQQPGSVLYVSFGSFAAMDFHEFVELAWGLADSKRPFVWVVRPNLIRGFESGALPDGVEDEVRGRGIVVKWAPQEEVLAHPAVGGFLTHNGWNSTVEAISEGVPMVCCPRHGDQFGNMRYVCDVWKVGTELVGEQLERGQVKAAIDRLFGTKEGEEIKERMKEFKIAAAKGIGIGVDVDETASPRTDLTDLVDLIKSF
modifications: Mutated Zea mays Bx9 protein sequence
B3: P214D: additional mutation in SEQ ID No: 17 (protein)
chain: MASSRTGAGAGGRVVVFPFPFQGHFNPVMRLARALHARGLAITVFHSGALDPADYPADYRFVPVTVEADPKLLASEDIAAIVTTLNASCDAPFRARLSALLAAEGRDSVRCVFTDVVWNAVLTASSDLGVPALGMMTASAASLRDYMAYRTLIDKGYLPVKEERKEDPVPELPPYLVKDLLRVDTSDLEEFAELLARTVTAARRASGLIFNTFDLIETDTLAEIHKALSVPVFAVAPLNKLVPTATASLHGVVQADRGCLQWLDTQQPGSVLYVSFGSFAAMDPHEFVELAWGLADSKRPFVWVVRPNLIRGFESGALPDGVEDEVRGRGIVVKWAPQEEVLAHPAVGGFLTHNGWNSTVEAISEGVPMVCCPRHGDQFGNMRYVCDVWKVGTELVGEQLERGQVKAAIDRLFGTKEGEEIKERMKEFKIAAAKGIGIGVDVDETASPRTDLTDLVDLIKSF
modifications: Mutated Zea mays Bx9 protein sequence
B4: A234C: additional mutation in SEQ ID No: 17 (protein)
chain: MASSRTGAGAGGRVVVFPFPFQGHFNPVMRLARALHARGLAITVFHSGALDPADYPADYRFVPVTVEADPKLLASEDIAAIVTTLNASCDAPFRARLSALLAAEGRDSVRCVFTDVVWNAVLTASSDLGVPALGMMTASAASLRDYMAYRTLIDKGYLPVKEERKEDPVPELPPYLVKDLLRVDTSDLEEFAELLARTVTAARRASGLIFNTFPLIETDTLAEIHKALSVPVFCVAPLNKLVPTATASLHGVVQADRGCLQWLDTQQPGSVLYVSFGSFAAMDPHEFVELAWGLADSKRPFVWVVRPNLIRGFESGALPDGVEDEVRGRGIVVKWAPQEEVLAHPAVGGFLTHNGWNSTVEAISEGVPMVCCPRHGDQFGNMRYVCDVWKVGTELVGEQLERGQVKAAIDRLFGTKEGEEIKERMKEFKIAAAKGIGIGVDVDETASPRTDLTDLVDLIKSF
modifications: Mutated Zea mays Bx9 protein sequence
B5: W303L: additional mutation in SEQ ID No: 17 (protein)
chain: MASSRTGAGAGGRVVVFPFPFQGHFNPVMRLARALHARGLAITVFHSGALDPADYPADYRFVPVTVEADPKLLASEDIAAIVTTLNASCDAPFRARLSALLAAEGRDSVRCVFTDVVWNAVLTASSDLGVPALGMMTASAASLRDYMAYRTLIDKGYLPVKEERKEDPVPELPPYLVKDLLRVDTSDLEEFAELLARTVTAARRASGLIFNTFPLIETDTLAEIHKALSVPVFAVAPLNKLVPTATASLHGVVQADRGCLQWLDTQQPGSVLYVSFGSFAAMDPHEFVELAWGLADSKRPFVLVVRPNLIRGFESGALPDGVEDEVRGRGIVVKWAPQEEVLAHPAVGGFLTHNGWNSTVEAISEGVPMVCCPRHGDQFGNMRYVCDVWKVGTELVGEQLERGQVKAAIDRLFGTKEGEEIKERMKEFKIAAAKGIGIGVDVDETASPRTDLTDLVDLIKSF
modifications: Mutated Zea mays Bx9 protein sequence
B6: L215D: additional mutation in SEQ ID No: 17 (protein)
chain: MASSRTGAGAGGRVVVFPFPFQGHFNPVMRLARALHARGLAITVFHSGALDPADYPADYRFVPVTVEADPKLLASEDIAAIVTTLNASCDAPFRARLSALLAAEGRDSVRCVFTDVVWNAVLTASSDLGVPALGMMTASAASLRDYMAYRTLIDKGYLPVKEERKEDPVPELPPYLVKDLLRVDTSDLEEFAELLARTVTAARRASGLIFNTFPDIETDTLAEIHKALSVPVFAVAPLNKLVPTATASLHGVVQADRGCLQWLDTQQPGSVLYVSFGSFAAMDPHEFVELAWGLADSKRPFVWVVRPNLIRGFESGALPDGVEDEVRGRGIVVKWAPQEEVLAHPAVGGFLTHNGWNSTVEAISEGVPMVCCPRHGDQFGNMRYVCDVWKVGTELVGEQLERGQVKAAIDRLFGTKEGEEIKERMKEFKIAAAKGIGIGVDVDETASPRTDLTDLVDLIKSF
modifications: Mutated Zea mays Bx9 protein sequence
B7: I216Y: additional mutation in SEQ ID No: 17 (protein)
chain: MASSRTGAGAGGRVVVFPFPFQGHFNPVMRLARALHARGLAITVFHSGALDPADYPADYRFVPVTVEADPKLLASEDIAAIVTTLNASCDAPFRARLSALLAAEGRDSVRCVFTDVVWNAVLTASSDLGVPALGMMTASAASLRDYMAYRTLIDKGYLPVKEERKEDPVPELPPYLVKDLLRVDTSDLEEFAELLARTVTAARRASGLIFNTFPLYETDTLAEIHKALSVPVFAVAPLNKLVPTATASLHGVVQADRGCLQWLDTQQPGSVLYVSFGSFAAMDPHEFVELAWGLADSKRPFVWVVRPNLIRGFESGALPDGVEDEVRGRGIVVKWAPQEEVLAHPAVGGFLTHNGWNSTVEAISEGVPMVCCPRHGDQFGNMRYVCDVWKVGTELVGEQLERGQVKAAIDRLFGTKEGEEIKERMKEFKIAAAKGIGIGVDVDETASPRTDLTDLVDLIKSF
modifications: Mutated Zea mays Bx9 protein sequence

Test: UDP luminescence plate assay of E. coli extracts, mutants within SEQ ID No: 17, 2 mM metribuzin
Format: biochemical, Zea mays
Details: for metribuzin signal relative to the SEQ ID No:17 control (first parentheses) / ratio of metribuzin to DMSO signal (second parentheses) / SIGNAL: metribuzin signal of mutant divided by the signal of the SEQ ID No. 17 control / luminescence signal observed with 2 mM metribuzin: 2 mM metribuzin; for metribuzin signal relative to the SEQ ID No:17 control (first parentheses) / ratio of metribuzin to DMSO signal (second parentheses): additional mutation in SEQ ID No: 17; for SIGNAL: metribuzin signal of mutant divided by the signal of the SEQ ID No. 17 control: relative to SEQ ID No: 17 control; for luminescence signal in the DMSO control / luminescence signal observed with 2 mM metribuzin: additional mutations within SEQ ID No: 17; for luminescence signal in the DMSO control: DMSO in place of metribuzin; for luminescence signal observed with 2 mM metribuzin: control = SEQ ID No: 17
Protocol: Activities observed with metribuzin were generally lower in magnitude than seen with herbicide V in the previous examples. For example, in one plate assay run with 2 mM metribuzin using 5 ul of diluted extract of plate-grown BL21DE3 cells expressing w/t bx9 and assayed for 40 minutes (as described in Example 2) the UDP-Glo luminescence signal was ˜3.4 E6 as compared with ˜2.3E6 in the DMSO control and ˜1.7E6 in the H24A null mutant control. […] It was therefore important to assess potential improvements in the metribuzin activity of the various mutants relative to the wild type bx9 enzyme based not only on the H24A null activity control but also based upon controls with DMSO in place of metribuzin acceptor substrate. In some plate assays (using more dilute extracts) the metribuzin signals from the w/t enzyme was the same or barely greater than the DMSO control. Additionally, some mutations gave an increase in the ‘background’ UDP-glucose hydrolysis activity with just DMSO present that was the same or similar to the magnitude of the increase in signal seen with metribuzin. In these instances it is therefore uncertain from just this UDP-Glo assay method whether the specific metribuzin signal (glucosylation of metribuzin) is improved or not i.e. the signal seen with metribuzin may or may not all or to a large part be attributable to increased background hydrolysis). […] Thus the ratio of the metribuzin to DMSO signal as well as the increase in signal relative to the w/t bx9 is used to help distinguish those mutations most likely to offer the highest activity to metribuzin. A follow up assay monitored by, for example, LC MS is one method to distinguish these cases more quantitatively. The tables below summarise the results from two different sets of luminescence plate assays to detect single mutations giving improvements in the magnitude of the signal with metribuzin relative to w/t bx9 and/or the apparent specificity for metribuzin as measured by the deviation of the ratio of metribuzin to DMSO control activity from the bx9 w/t value of around unity.
A further separate screen was carried out to explore a library of additional mutations at various positions within the context of SEQ ID No: 17 for improved metribuzin activity. These were assayed, assessed and scored as above. […] These were S75K (2.5)(1.25), A236G (4.0)(1.15), A433V (3.3)(9.0) and R449C (1.8)(1.2).
A yet further and more comprehensive screen was carried out to explore saturation mutagenesis at all remaining amino acid positions within the context of SEQ ID No:17 for improved metribuzin activity. Again these were assayed, assessed and scored as above and the results of (out of the thousands screened) of the subset that were of interest are summarized in Table 16.

Row | Molecule | metribuzin signal relative to the SEQ ID No:17 control (first parentheses) | ratio of metribuzin to DMSO signal (second parentheses) | SIGNAL: metribuzin signal of mutant divided by the signal of the SEQ ID No. 17 control | luminescence signal in the DMSO control | luminescence signal observed with 2 mM metribuzin
1 | B1 | 4.7 | 1.24 | 4.75 | 6.96E+06 | 8.66E+06
2 | B2 | 1.8 | 1.29 | 1.81 | 2.55E+06 | 3.30E+06
3 | B3 | 3.7 | 1.34 | 3.66 | 4.99E+06 | 6.67E+06
4 | B4 | 3.0 | 1.29 | 2.96 | 4.20E+06 | 5.40E+06
5 | B5 | 2.3 | 1.35 | 2.30 | 3.10E+06 | 4.20E+06
6 | B6 | 3.1 | 1.34 | 3.14 | 4.26E+06 | 5.72E+06
7 | B7 | 3.5 | 1.33 | 3.50 | 4.79E+06 | 6.38E+06
